In the supplement of paper PMC10065799, “High-throughput profiling of sequence recognition by tyrosine kinases and SH2 domains using bacterial peptide display” (eLife, 2023):

What was measured:
c-Abl (mouse) = test: phosphorylation enrichment, bacterial display (enrichment ratio); higher = better substrate or ligand; peptides without Tyr show the background
Fes = Fes (UniProt P07332); test: as above
Fer (mouse) = test: as above
EPHB1 = EPHB1 (UniProt P54762); test: as above
MERTK = MERTK (UniProt Q12866); test: as above
Hck = Hck (UniProt P08631); test: as above
AncSZ = test: as above
Fyn = Fyn (UniProt P06241); test: as above
FGFR1 = FGFR1 (UniProt P11362); test: as above
EPHB2 = EPHB2 (UniProt P29323); test: as above
FGFR3 = FGFR3 (UniProt P22607); test: as above
c-Src = test: as above
Jak2 = Jak2 (UniProt O60674); test: as above
SHP2-C SH2 = test: SH2 binding enrichment of the phosphorylated peptide, bacterial display (enrichment ratio); higher = better substrate or ligand; peptides without Tyr show the background
Grb2 SH2 = Grb2 SH2 (UniProt P62993); test: as above
c-Src SH2 = test: as above
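Wherever SH2 binding enrichment of the phosphorylated peptide, bacterial display is given: peptide library displayed on the E. coli surface as eCPX fusions, selected cells deep-sequenced, score is each peptide's frequency after selection divided by its frequency in the input.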
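Wherever phosphorylation enrichment, bacterial display is given: 11-residue human phosphosite peptides and single-mutation variants displayed on the E. coli surface, counted by deep sequencing, each peptide's frequency after selection divided by its frequency in the unselected input library; frequency after pTyr selection over input frequency; kinase dosed for 20-30% of maximal phosphorylation in three min.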

Sequence of Fyn (P06241 whole entry, looked up): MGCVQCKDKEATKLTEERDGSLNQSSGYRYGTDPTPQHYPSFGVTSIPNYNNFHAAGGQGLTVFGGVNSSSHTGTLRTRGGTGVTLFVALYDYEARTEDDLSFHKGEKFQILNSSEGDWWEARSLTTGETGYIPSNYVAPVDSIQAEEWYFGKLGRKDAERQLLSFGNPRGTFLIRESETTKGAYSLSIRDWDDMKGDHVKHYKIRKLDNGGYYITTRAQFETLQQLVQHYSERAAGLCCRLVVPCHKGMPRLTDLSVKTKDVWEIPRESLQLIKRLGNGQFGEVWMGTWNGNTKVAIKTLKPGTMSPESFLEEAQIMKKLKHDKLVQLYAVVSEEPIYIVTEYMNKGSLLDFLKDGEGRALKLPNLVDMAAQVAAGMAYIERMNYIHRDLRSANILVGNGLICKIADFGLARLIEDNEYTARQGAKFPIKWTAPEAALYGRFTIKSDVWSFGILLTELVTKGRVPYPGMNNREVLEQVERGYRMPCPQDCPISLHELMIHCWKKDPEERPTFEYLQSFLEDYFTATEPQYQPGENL
Sequence of Fes (P07332 whole entry, looked up): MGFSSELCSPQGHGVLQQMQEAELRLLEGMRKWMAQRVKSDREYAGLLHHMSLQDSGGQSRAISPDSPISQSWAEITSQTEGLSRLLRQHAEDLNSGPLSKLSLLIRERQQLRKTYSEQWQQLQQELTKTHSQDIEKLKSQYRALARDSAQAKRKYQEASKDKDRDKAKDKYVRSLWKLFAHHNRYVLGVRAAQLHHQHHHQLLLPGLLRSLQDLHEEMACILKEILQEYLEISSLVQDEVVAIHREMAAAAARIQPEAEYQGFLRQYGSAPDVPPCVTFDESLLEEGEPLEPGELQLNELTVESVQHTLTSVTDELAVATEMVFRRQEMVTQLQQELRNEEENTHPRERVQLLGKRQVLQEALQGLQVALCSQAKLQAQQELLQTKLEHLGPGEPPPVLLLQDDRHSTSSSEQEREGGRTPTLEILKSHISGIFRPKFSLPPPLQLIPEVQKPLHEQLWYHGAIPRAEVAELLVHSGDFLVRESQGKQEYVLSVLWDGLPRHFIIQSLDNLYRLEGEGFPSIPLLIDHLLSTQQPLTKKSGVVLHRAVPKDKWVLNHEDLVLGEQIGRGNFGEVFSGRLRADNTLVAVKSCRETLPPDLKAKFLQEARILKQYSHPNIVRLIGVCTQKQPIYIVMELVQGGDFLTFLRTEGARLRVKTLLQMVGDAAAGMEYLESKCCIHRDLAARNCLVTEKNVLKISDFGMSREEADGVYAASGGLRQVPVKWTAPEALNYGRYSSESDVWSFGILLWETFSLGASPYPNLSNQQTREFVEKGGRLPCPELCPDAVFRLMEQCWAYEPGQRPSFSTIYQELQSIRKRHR
Sequence of EPHB2 (P29323 whole entry, looked up): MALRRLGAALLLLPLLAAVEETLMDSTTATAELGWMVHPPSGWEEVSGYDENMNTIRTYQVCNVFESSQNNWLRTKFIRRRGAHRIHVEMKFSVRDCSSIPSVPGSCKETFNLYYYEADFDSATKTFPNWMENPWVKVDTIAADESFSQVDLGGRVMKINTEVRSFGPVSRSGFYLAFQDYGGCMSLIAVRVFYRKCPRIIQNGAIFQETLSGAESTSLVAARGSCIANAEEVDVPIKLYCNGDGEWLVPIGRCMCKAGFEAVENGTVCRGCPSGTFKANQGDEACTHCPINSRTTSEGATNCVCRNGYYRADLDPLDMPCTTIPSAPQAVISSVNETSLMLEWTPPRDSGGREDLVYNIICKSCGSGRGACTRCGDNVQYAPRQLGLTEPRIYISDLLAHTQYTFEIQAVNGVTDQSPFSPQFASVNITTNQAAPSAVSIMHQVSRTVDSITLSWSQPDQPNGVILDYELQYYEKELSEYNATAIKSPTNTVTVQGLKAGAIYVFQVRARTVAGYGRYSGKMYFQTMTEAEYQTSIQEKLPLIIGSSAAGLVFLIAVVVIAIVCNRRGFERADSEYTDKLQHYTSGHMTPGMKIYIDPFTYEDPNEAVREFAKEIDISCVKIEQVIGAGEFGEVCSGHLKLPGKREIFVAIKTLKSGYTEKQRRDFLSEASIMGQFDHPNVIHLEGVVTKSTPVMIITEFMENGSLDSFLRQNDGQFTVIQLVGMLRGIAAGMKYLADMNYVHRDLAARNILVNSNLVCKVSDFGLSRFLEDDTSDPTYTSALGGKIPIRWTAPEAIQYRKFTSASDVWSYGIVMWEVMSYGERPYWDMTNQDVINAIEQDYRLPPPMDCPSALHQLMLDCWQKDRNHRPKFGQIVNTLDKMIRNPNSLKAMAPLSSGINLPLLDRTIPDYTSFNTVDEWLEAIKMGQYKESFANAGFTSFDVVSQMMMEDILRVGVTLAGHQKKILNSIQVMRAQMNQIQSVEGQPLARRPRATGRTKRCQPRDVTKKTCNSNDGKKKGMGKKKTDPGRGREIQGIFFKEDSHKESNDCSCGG
Sequence of FGFR3 (P22607 whole entry, looked up): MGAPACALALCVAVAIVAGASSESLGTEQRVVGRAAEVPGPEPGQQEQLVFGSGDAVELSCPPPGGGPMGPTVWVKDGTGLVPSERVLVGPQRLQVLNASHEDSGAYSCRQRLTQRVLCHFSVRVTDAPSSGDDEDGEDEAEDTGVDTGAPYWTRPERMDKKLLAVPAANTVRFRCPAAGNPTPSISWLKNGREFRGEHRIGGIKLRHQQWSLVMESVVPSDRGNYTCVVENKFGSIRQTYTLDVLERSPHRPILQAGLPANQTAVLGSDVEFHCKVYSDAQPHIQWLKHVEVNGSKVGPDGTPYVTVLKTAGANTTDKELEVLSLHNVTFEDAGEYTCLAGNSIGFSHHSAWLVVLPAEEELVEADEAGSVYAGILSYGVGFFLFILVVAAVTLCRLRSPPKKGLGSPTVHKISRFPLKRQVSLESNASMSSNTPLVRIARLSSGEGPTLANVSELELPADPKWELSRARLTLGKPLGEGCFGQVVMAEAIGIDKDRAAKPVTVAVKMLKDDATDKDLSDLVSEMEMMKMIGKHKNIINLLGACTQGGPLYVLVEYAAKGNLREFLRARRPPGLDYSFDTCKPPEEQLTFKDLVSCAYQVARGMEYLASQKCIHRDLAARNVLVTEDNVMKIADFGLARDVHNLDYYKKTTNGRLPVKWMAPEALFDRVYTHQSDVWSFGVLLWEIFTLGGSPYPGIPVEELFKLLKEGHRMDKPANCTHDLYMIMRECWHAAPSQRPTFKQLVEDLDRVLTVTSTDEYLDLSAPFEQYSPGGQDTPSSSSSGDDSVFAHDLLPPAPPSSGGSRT
Sequence of Grb2 SH2 (P62993 whole entry, looked up): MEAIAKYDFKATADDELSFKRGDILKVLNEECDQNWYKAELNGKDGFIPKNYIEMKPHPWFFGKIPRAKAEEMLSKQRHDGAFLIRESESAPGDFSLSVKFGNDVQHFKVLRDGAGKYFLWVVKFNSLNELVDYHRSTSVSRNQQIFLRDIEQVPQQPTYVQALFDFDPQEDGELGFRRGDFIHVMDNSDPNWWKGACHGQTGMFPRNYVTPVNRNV
Sequence of FGFR1 (P11362 whole entry, looked up): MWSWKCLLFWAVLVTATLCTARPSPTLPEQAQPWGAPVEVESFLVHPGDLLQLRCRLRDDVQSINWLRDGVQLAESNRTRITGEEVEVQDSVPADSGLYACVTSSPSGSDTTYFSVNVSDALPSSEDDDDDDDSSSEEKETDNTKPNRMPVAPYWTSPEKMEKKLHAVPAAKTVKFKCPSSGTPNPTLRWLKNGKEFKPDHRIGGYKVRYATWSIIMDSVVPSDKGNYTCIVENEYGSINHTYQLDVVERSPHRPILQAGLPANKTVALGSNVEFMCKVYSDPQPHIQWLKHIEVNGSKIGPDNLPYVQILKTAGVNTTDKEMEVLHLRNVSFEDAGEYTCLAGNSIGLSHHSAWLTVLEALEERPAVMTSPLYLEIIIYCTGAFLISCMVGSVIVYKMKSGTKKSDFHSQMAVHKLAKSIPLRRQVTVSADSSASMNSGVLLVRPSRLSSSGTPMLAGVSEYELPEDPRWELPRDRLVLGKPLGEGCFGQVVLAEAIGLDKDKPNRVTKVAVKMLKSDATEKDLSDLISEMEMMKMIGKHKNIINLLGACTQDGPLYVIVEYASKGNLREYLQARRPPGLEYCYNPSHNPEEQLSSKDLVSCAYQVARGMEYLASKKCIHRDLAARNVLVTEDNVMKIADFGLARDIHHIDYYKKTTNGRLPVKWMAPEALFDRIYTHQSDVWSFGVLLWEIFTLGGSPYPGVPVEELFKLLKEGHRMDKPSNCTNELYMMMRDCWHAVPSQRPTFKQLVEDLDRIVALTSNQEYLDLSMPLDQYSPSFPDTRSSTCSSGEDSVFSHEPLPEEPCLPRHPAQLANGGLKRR
Sequence of Hck (P08631 whole entry, looked up): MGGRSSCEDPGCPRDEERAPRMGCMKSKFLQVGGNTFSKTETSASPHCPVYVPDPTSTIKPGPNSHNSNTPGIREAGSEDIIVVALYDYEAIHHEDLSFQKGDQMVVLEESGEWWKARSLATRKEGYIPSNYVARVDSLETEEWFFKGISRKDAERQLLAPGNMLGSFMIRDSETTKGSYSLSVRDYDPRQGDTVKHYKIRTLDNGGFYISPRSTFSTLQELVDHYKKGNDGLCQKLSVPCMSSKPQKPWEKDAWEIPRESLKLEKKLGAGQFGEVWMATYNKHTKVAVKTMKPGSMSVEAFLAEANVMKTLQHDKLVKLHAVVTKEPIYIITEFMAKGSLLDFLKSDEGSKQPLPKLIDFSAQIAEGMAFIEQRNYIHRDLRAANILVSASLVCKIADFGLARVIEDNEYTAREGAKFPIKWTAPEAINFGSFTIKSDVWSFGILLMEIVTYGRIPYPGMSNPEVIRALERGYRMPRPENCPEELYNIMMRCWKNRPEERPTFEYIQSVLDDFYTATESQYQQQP

Sequence | phosphorylation enrichment (c-Abl (mouse)) | phosphorylation enrichment (Fes) | phosphorylation enrichment (Fer (mouse)) | phosphorylation enrichment (EPHB1) | phosphorylation enrichment (MERTK) | phosphorylation enrichment (Hck) | phosphorylation enrichment (AncSZ) | phosphorylation enrichment (Fyn) | phosphorylation enrichment (FGFR1) | phosphorylation enrichment (EPHB2) | phosphorylation enrichment (FGFR3) | phosphorylation enrichment (c-Src) | phosphorylation enrichment (Jak2) | SH2 binding enrichment (SHP2-C SH2) | SH2 binding enrichment (Grb2 SH2) | SH2 binding enrichment (c-Src SH2)
TEAEPYFRSLR [NPHS1_Y1138_YF] | 0.758 | 0.953 | 0.494 | 0.448 | 0.447 | 0.511 | 0.852 | 0.557 | 0.399 | 0.519 | 0.639 | 0.477 | 0.843 | 1.02 | 0.938 | 0.571
LKGQVYILGRE [ASS1_Y359] | 1.47 | 1.26 | 0.756 | 0.522 | 0.56 | 0.369 | 1.09 | 0.679 | 0.406 | 0.949 | 1.07 | 0.438 | 1.17 | 0.444 | 0.836 | 0.31
ADARMYGVLPW [PLP1_Y207] | 1.24 | 0.84 | 0.594 | 0.945 | 3.38 | 9.33 | 0.793 | 9.58 | 0.511 | 2.48 | 0.545 | 6.65 | 0.7 | 0.7 | 1.05 | 0.443
QFLMMYVWSAS [ABCD1_Y337_K336M] | 1.27 | 1.58 | 0.807 | 0.873 | 0.541 | 0.912 | 1.53 | 0.465 | 0.426 | 0.931 | 1.22 | 0.779 | 1.46 | 1.03 | 0.929 | 0.543
GVYSRYFTTYD [CLCA1_Y661] | 0.955 | 1 | 0.573 | 1.12 | 3.71 | 3.33 | 1.35 | 4.58 | 0.571 | 1.25 | 0.729 | 4.77 | 1.07 | 1.27 | 0.944 | 1.06
TLCLCYKETEE [ATP8B1_Y658_I661T] | 1.29 | 1.64 | 0.737 | 0.879 | 0.483 | 0.647 | 1.42 | 0.708 | 0.573 | 0.749 | 0.903 | 0.617 | 1.53 | 0.672 | 0.783 | 0.496
PLRANYLIARV [HLCS_Y635_D634N] | 2.74 | 1.12 | 0.7 | 1.12 | 0.716 | 0.763 | 0.927 | 0.769 | 0.707 | 0.861 | 0.853 | 1.01 | 1.27 | 1.29 | 1.27 | 0.992
PEVCDYGLGGG [GSTO1_Y239_A236V] | 0.726 | 1.07 | 0.807 | 0.575 | 0.837 | 0.765 | 1.6 | 0.965 | 0.689 | 0.812 | 0.803 | 0.611 | 1.03 | 1.16 | 1.05 | 0.562
QFFQGYFNNNF [ZNF236_Y644_S643G] | 1.23 | 1.2 | 0.356 | 0.545 | 0.58 | 0.574 | 1.15 | 0.42 | 0.643 | 0.496 | 0.845 | 0.721 | 1.55 | 1.51 | 1.63 | 1.28
QQTYTYDSGIH [JUP_Y22] | 0.841 | 1.35 | 0.454 | 1.09 | 3.33 | 1.61 | 1.45 | 1.65 | 1.12 | 1.5 | 1.38 | 1.41 | 1.2 | 0.535 | 1 | 0.744
LRGEDCGFSVD [PRKCI_Y430_Y430C] | 1.97 | 2.77 | 0.886 | 2.18 | 1.25 | 0.987 | 1.94 | 0.631 | 0.847 | 1.14 | 1.41 | 1.48 | 2.49 | 0.615 | 0.925 | 0.841
PKGWNYELPAT [PROM1_Y34_A31G] | 0.696 | 0.867 | 0.433 | 0.597 | 0.45 | 0.516 | 1 | 0.531 | 0.518 | 0.454 | 0.592 | 0.383 | 0.698 | 0.613 | 1.14 | 1.25
GVRLFYRVMES [RB1_Y454_YF] | 0.83 | 1.42 | 0.517 | 0.655 | 0.381 | 0.541 | 1.29 | 0.448 | 0.488 | 0.576 | 0.815 | 0.39 | 1.38 | 0.684 | 0.624 | 0.429
EAAFVYVISSA [WNT4_Y113_A114V] | 0.847 | 1.45 | 0.561 | 0.684 | 0.477 | 0.65 | 1.32 | 0.606 | 0.496 | 0.656 | 1.09 | 0.631 | 1.33 | 0.76 | 0.735 | 0.39
REVPVYTYSEP [FAM120B_Y368_D370Y] | 1.97 | 1.82 | 12.9 | 3.19 | 5.36 | 4.16 | 3.86 | 9.05 | 1.56 | 2.33 | 1.81 | 5.2 | 1.13 | 0.614 | 0.853 | 3.29
TKFVAYIESQG [KDM4B_Y34_N29T_YF] | 0.64 | 1.02 | 0.403 | 0.499 | 0.307 | 0.578 | 0.974 | 0.497 | 0.51 | 0.56 | 0.685 | 0.396 | 1.12 | 0.703 | 0.736 | 0.6
FSAPNCCFRCG [PPP2CA_Y265_Y265C_YF] | 0.658 | 0.974 | 0.48 | 0.559 | 0.486 | 0.479 | 0.856 | 0.458 | 0.458 | 0.461 | 0.663 | 0.448 | 0.833 | 0.751 | 0.931 | 0.585
DGNTRYSTFSE [TKTL1_Y318_D315N] | 0.746 | 0.969 | 0.383 | 0.473 | 0.339 | 0.418 | 0.789 | 0.319 | 0.402 | 0.48 | 0.533 | 0.569 | 1.01 | 1.07 | 0.655 | 1.02
KLGDVYVNDAF [PGK1_Y161] | 0.574 | 0.86 | 0.547 | 0.467 | 0.395 | 0.488 | 0.734 | 0.552 | 0.557 | 0.571 | 0.63 | 0.423 | 0.801 | 0.729 | 2.38 | 1.39
TMETKYDNISR [SETDB2_Y477_V473M] | 0.665 | 0.689 | 0.403 | 0.356 | 0.469 | 0.431 | 0.652 | 0.414 | 0.678 | 0.424 | 0.474 | 0.429 | 0.808 | 0.876 | 1.01 | 3.56
SVVVPYEPHEV [TP53_Y220_P223H] | 0.803 | 1.25 | 1.38 | 0.716 | 0.493 | 0.577 | 1.05 | 0.54 | 0.542 | 0.615 | 0.835 | 0.513 | 1.18 | 0.781 | 0.726 | 0.569
KKFPDYIQSAM [SGMS2_Y59_I62S_YF] | 0.472 | 0.65 | 0.332 | 0.348 | 0.364 | 0.482 | 0.621 | 0.401 | 0.479 | 0.424 | 0.471 | 0.521 | 0.512 | 0.694 | 0.821 | 0.532
GEDEPYAEPFA [APBA1_Y183_S184A_YF] | 0.814 | 1.21 | 0.569 | 0.584 | 0.547 | 0.593 | 1.43 | 0.462 | 0.607 | 0.571 | 0.872 | 0.649 | 1.47 | 0.652 | 1.08 | 0.636
EFTPLYPMLFG [SCLY_Y280] | 0.849 | 1.12 | 0.458 | 0.59 | 2.6 | 0.515 | 1.01 | 0.547 | 12.8 | 0.695 | 9.26 | 0.475 | 1.64 | 4.07 | 0.993 | 0.504
LADKPYTFEDF [FXN_Y118_YF] | 0.738 | 2.52 | 1.96 | 1.43 | 1.39 | 1.26 | 2.9 | 7.15 | 2.21 | 1.86 | 2 | 3.9 | 0.988 | 0.954 | 1.1 | 0.708
DFLEKYFKFGS [NNMT_Y24_YF] | 0.936 | 1.41 | 0.514 | 0.525 | 0.564 | 0.521 | 1.12 | 0.437 | 0.491 | 0.587 | 0.826 | 0.627 | 1.8 | 0.386 | 0.764 | 0.579
GTSLIYWILFT [G6PC3_Y214_T216I] | 1.43 | 1.56 | 0.55 | 1 | 1.46 | 1.74 | 1.18 | 2.42 | 1.17 | 0.749 | 1.38 | 2.67 | 1.59 | 0.695 | 0.742 | 0.593
RFMELYDLNRD [BBS2_Y648_YF] | 0.556 | 1.28 | 0.703 | 0.61 | 0.459 | 1.14 | 1.28 | 1.25 | 0.762 | 0.812 | 0.883 | 2.04 | 0.909 | 1.06 | 1.02 | 0.563
WAFNLYDINKF [KCNIP3_Y174_D179Y_YF] | 0.662 | 1.26 | 4.81 | 2.22 | 3.37 | 3.36 | 1.02 | 2.08 | 0.497 | 3.11 | 0.669 | 1.61 | 0.933 | 0.731 | 0.905 | 0.519
